Key:
human PD-L1 ECD-His [1] = biological target: T1, human PD-L1 ECD-His (human, UniProt Q9NZQ7 19-238); assay: BLI, ratio of KD to parental PL3#7-19
T1 construct: extracellular domain; Analyte in all SPR and BLI runs; also called hPD-L1_ECD-His; hPD-L1 ECD-His; not shown: His tag
Method: (§1) Briefly, black 96-well plate was prepared with columns containing 200 μL/well of reagents required for determination of affinity. In general, Octet anti-human-Fc sensors were first placed in wells containing 1×Kinetics Buffer (PBS, 0.1% BSA, 0.02% Tween-20, pH 7.4) for 180 seconds to establish a baseline. Sensors were then transferred to wells containing […] anti-PD-L1 variants for 600 seconds to load the anti-human-Fc tips. Sensors were then placed in fresh 1×Kinetics Buffer for 180 seconds to establish a baseline. Association was then measured by incubating the sensors for 3 minutes in wells containing hPD-L1-His followed by transferring to wells containing 1×Kinetics Buffer for 10 minutes to measure dissociation. Sensors were then regenerated by 3X5 second incubations in Regeneration Buffer (10 mM Glycine, pH 1.5) followed by a 5 second incubation in 1×Kinetics Buffer each time. Regeneration was repeated before measurement of each association/dissociation cycle. […] All data were analyzed with Octet Data Analysis Software v.9.0 and representative of two independent experiments performed in duplicate.
(§2) All the data are representative of two independent experiments performed in duplicate.

human PD-L1 ECD-His [2] = biological target: T1, human PD-L1 ECD-His; assay: BLI Octet RED96, antibody on AHC anti-human-Fc sensor, hPD-L1-His analyte, 1:1 fit
Method: as §1, §2

[3] = biological target: T2, human PD-L1 on cells (PHA-activated human T cells); PD-L1-transfected CHO-S cells; A375 melanoma cells; … (human, UniProt Q9NZQ7 19-290); assay: flow cytometry on PD-L1 transfected CHO-S cells, anti-human IgG Fc-FITC, MFI
T2 construct: whole, on cells; also called PD-L1 expressing T cells; PD-L1 expressing CHO-S cells
T2 sequence (Q9NZQ7 19-290): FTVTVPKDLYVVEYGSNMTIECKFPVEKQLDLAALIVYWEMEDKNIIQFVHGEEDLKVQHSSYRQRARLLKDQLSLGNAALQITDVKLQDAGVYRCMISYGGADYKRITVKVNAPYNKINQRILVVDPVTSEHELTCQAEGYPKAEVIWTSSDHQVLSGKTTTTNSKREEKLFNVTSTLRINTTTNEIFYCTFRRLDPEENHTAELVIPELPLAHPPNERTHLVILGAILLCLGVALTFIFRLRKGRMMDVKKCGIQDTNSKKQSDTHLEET
Method: Binding of tested de-glycosylated variants was assessed by incubating the PD-L1 expressing CHO-S cells (2E5 cells/well) with the serial-diluted antibodies in FACS buffer (PBS with 1% FBS) at 4° C. for 30 minutes. These cells were washed with flow buffer and then stained with anti-human IgG Fc-FITC (1:500×) at 4° C. for 30 minutes to detect antibody binding on the cell surface. Flow cytometric analyses were performed using CytoFlex (Beckman Coulter Inc.).

human PD-L1 ECD-His [4] = biological target: T1, human PD-L1 ECD-His; assay: BLI, ratio of KD to parental PL3#7-43
Method: as §1, §2

[5] = biological target: T2, human PD-L1 on cells (PHA-activated …); assay: flow cytometry on NCI-H292 human NSCLC cells, biotin-labeled anti-human IgG Fcγ and streptavidin-PE, MFI
human PD-L1 ECD-His [6] = biological target: T1, human PD-L1 ECD-His; assay: BLI, ratio of KD to ref-1
Method: (§3) Briefly, black 96-well plate was prepared with columns containing 200 μL/well of reagents required for determination of affinity. In general, Octet SA sensors were first placed in wells containing 1×Kinetics Buffer (PBS, 0.1% BSA, 0.02% Tween-20, pH 7.4) for 180 seconds to establish a baseline. […] Sensors were then regenerated by 3×5 second incubations in Regeneration Buffer (10 mM Glycine, pH 1.5) followed by a 5 second incubation in 1×Kinetics Buffer each time. Regeneration was repeated before measurement of each association/dissociation cycle. Sensors were then placed in fresh 1×Kinetics Buffer for 180 seconds to establish a baseline. Association was then measured by incubating the sensors for 5 minutes in wells containing hPD-L1-His followed by transferring to wells containing 1×Kinetics Buffer for 10 minutes to measure dissociation. Kinetics (ka, kd, and […] were measured by global fitting four association/dissociation cycles of data obtained from 1:3 serial dilutions of hPD-L1-His from 38.28 nM to 1.42 nM (one association/dissociation cycle for one concentration) with a 1:1 Langmuir binding model. All data were analyzed with Octet Data Analysis Software v.9.0 and representative of two independent experiments performed in duplicate.
as §2

human PD-L1 ECD-His [7] = biological target: T1, human PD-L1 ECD-His; assay: BLI Octet RED96, biotinylated antibody on SA sensor, hPD-L1-His analyte, 1:1 fit
Method: as §3, §2

[8] = biological target: T2, human PD-L1 on cells (PHA-activated …); assay: flow cytometry on PHA-activated human T cells, biotin-labeled anti-human IgG Fcγ and streptavidin-PE, MFI
[9] = biological target: T3, recombinant cynomolgus monkey PD-L1_ECD Fc-fusion protein (Sino Biological Inc.) (cynomolgus monkey, UniProt G7PSE7 19-238); assay: ELISA: cynomolgus monkey PD-L1_ECD/Fc coated (9 ng/well), peroxidase-labeled goat anti-human IgG F(ab)'2, TMB, OD450
T3 construct: Bought
T3 sequence (G7PSE7 entry or part of it limits assumed): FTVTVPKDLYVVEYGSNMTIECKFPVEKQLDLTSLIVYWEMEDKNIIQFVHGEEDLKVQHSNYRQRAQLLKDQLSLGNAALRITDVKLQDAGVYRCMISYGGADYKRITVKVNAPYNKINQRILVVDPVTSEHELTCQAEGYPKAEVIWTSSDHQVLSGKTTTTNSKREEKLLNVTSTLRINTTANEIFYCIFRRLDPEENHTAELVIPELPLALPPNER
Method: The recombinant cynomolgus monkey PD-L1_ECD Fc-fusion proteins were purchased from Sino Biological Inc. PD-L1_ECD/Fc (9 ng per well) were immobilized onto 96-well assay plat by incubating overnight at 4° C. Nonspecific binding sites were blocked using 5% skim milk in PBS for one hour at room temperature. After washing plates three times with PBST, indicated concentrations of anti-PD-L1 antibodies and HLX01 (negative control) were incubated with the immobilized proteins for one hour at room temperature. The plates were washed three times with PBST and then incubated for one hour at room temperature with peroxidase-labeled goat anti-human IgG F(ab)′2 (Jackson ImmunoResearch Laboratories) diluted 1/10,000 in PBS. After washing, plates were developed using TMB (eBioscience). The absorbance was read at the wavelength of 450 nm by Varioskan LUX microplate reader (Thermo Scientific).
HLX01 (anti-CD20 mAb) was used as the negative control.

[10] = biological target: T2, human PD-L1 on cells (PHA-activated …); assay: flow cytometry on A375 human melanoma cells, biotin-labeled anti-human IgG Fcγ and streptavidin-PE, MFI
[11] = biological target: T4, mouse PD-L1 on B16-F10 melanoma cells (mouse, UniProt Q9EP73 19-290); assay: flow cytometry on mouse PD-L1 expressing B16-F10 melanoma cells, FITC-labeled anti-human IgG Fcγ, MFI
T4 construct: whole, on cells
T4 sequence (Q9EP73 19-290): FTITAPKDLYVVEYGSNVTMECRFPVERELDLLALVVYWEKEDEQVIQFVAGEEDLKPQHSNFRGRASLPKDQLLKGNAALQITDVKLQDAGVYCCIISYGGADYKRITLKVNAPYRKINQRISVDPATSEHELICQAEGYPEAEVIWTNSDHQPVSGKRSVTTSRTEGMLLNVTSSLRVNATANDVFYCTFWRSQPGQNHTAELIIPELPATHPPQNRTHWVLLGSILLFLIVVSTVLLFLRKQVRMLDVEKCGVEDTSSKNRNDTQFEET

human PD-L1 ECD-His [12] = biological target: T1, human PD-L1 ECD-His; assay: SPR, ratio of KD to ref-1
human PD-L1 ECD-His [13] = biological target: T1, human PD-L1 ECD-His; assay: SPR, hPD-L1-His, comparison of IgG isotypes of PL2#3

T1 sequence (Q9NZQ7 19-238): as the sequence (G7PSE7 entry or part of it limits assumed) above, with T33A, S34A, N62S, Q68R, R82Q, L173F, A185T, I192T, L215H counted along it

Row | Fold Difference (against parental variant) (human PD-L1 ECD-His [1]) [fold] | Kd (human PD-L1 ECD-His [2]) [nM] | koff (human PD-L1 ECD-His [2]) [s⁻¹] | kon (human PD-L1 ECD-His [2]) [M⁻¹ s⁻¹] | EC50 (read off the curve) [3] [µg/mL] | Fold Difference (against parental variant) (human PD-L1 ECD-His [4]) [fold] | EC50 (read off the curve) [5] [µg/mL] | Improvement over ref-1 (human PD-L1 ECD-His [6]) [fold] | Kd (human PD-L1 ECD-His [7]) [nM] | koff (human PD-L1 ECD-His [7]) [s⁻¹] | kon (human PD-L1 ECD-His [7]) [M⁻¹ s⁻¹] | EC50 (read off the curve) [8] [µg/mL] | EC50 (read off the curve) [9] [µg/mL] | EC50 (read off the curve) [10] [µg/mL] | binding result [11] | Improvement over ref-1 (human PD-L1 ECD-His [12]) [fold] | Kd (human PD-L1 ECD-His [13]) [nM] | koff (human PD-L1 ECD-His [13]) [s⁻¹] | kon (human PD-L1 ECD-His [13]) [M⁻¹ s⁻¹] | Binder
1 | 1.48 | 0.417 | 0.000162 | 384000 | ~0.2 | – | – | – | – | – | – | – | – | – | – | – | – | – | – | PL3#7-19 deglyco1 mtIgG1 (antibody, V domains shown, N297A mutant human IgG1; also called PL3#7-19 deglycol) VH: QVQLVQSGAEVKKPGSSVKVSCKASGGTFSSYPISWVRQAPGQGLEWMGRIIPILGIANYAQKFQGRVTITADKSTSTAYMELSSLRSEDTAVYYCARSRDGYAFGAFDVWGQGTLVTVSS VL: QSVVTQPPPVSGAPGQRVTISCTGSSSNIGGGYDVHWYQQLPGTAPKLLIYGNSNRPSGVPDRFSGSKSGTSASLAITGLQAEDEADYYCQTYDSSLSATVVFGGGTKLTVLG
2 | – | 0.395 | 0.000238 | 600000 | ~0.2 | 0.87 | – | – | – | – | – | – | – | – | – | – | – | – | – | PL3#7-43 deglyco2 mtIgG1 (antibody, V domains shown, N297A mutant human IgG1; also called PL3#7-43 deg1yco2) VH: QVQLVQSGAEVKKPGSSVKVSCKASGGTFSSYPISWVRQAPGQGLEWMGRIIPILGIANYAQKFQGRVTITADKSTSTAYMELSSLRSEDTAVYYCARSRPGYAFGAFDIWGQGTLVTVSS VL: QSVVTQPPPVSGAPGQRVTISCTGSSSNVGAGYDVHWYQQLPGTAPKLLIYGNSQRSSGVPDRFSGSKSGTSASLAITGLQAEDEADYYCQTYDSSGSARVVFGGGTKLTVLG
3 | 1.74 | 0.356 | 0.000176 | 506000 | ~0.2 | – | – | – | – | – | – | – | – | – | – | – | – | – | – | PL3#7-19 deglyco3 mtIgG1 (antibody, V domains shown, N297A mutant human IgG1) VH: QVQLVQSGAEVKKPGSSVKVSCKASGGTFSSYPISWVRQAPGQGLEWMGRIIPILGIANYAQKFQGRVTITADKSTSTAYMELSSLRSEDTAVYYCARSRDGYAFGAFDVWGQGTLVTVSS VL: QSVVTQPPPVSGAPGQRVTISCTGSSSNIGGGYDVHWYQQLPGTAPKLLIYGNSQRPSGVPDRFSGSKSGTSASLAITGLQAEDEADYYCQTYDSSLSATVVFGGGTKLTVLG
4 | – | – | – | – | – | – | ~0.008 | 3.19 | 0.772 | 0.000228 | 307000 | ~0.004 | ~0.05 | ~0.001 | – | – | – | – | – | PL3#7-54 mtIgG1 (antibody, V domains shown, Antibody was biotinylated (NHS-PEG4-biotin, sites not specified) for the Octet assay of Table 11., N297A mutant human IgG1) VH: QVQLVQSGAEVKKPGSSVKVSCKASGGTFSSYPISWVRQAPGQGLEWMGRIIPILGIADYAQKFQGRVTITADKSTSTAYMELSSLRSEDTAVYYCARSRPGYAFGAFDIWGQGTLVTVSS VL: QSVVTQPPPVSGAPGQRVTISCTGSSSNIGQGYDVHWYQQLPGTAPKLLIYANSNRPSGVPDRFSGSKSGTSASLAITGLQAEDEADYYCQTYDSSLSARVVFGGGTKLTVLG
5 | 1.68 | 0.369 | 0.000151 | 415000 | ~0.2 | – | – | – | – | – | – | – | – | – | – | – | – | – | – | PL3#7-19 deglyco2 mtIgG1 (antibody, V domains shown, N297A mutant human IgG1) VH: QVQLVQSGAEVKKPGSSVKVSCKASGGTFSSYPISWVRQAPGQGLEWMGRIIPILGIANYAQKFQGRVTITADKSTSTAYMELSSLRSEDTAVYYCARSRDGYAFGAFDVWGQGTLVTVSS VL: QSVVTQPPPVSGAPGQRVTISCTGSSSNIGGGYDVHWYQQLPGTAPKLLIYGQSTRPSGVPDRFSGSKSGTSASLAITGLQAEDEADYYCQTYDSSLSATVVFGGGTKLTVLG
6 | – | 0.439 | 0.000271 | 612000 | ~0.2 | 0.79 | – | – | – | – | – | – | – | – | – | – | – | – | – | PL3#7-43 deglyco1 mtIgG1 (antibody, V domains shown, N297A mutant human IgG1; also called PL3#7-43 deglycol) VH: QVQLVQSGAEVKKPGSSVKVSCKASGGTFSSYPISWVRQAPGQGLEWMGRIIPILGIANYAQKFQGRVTITADKSTSTAYMELSSLRSEDTAVYYCARSRPGYAFGAFDIWGQGTLVTVSS VL: QSVVTQPPPVSGAPGQRVTISCTGSSSNVGAGYDVHWYQQLPGTAPKLLIYGNSNRPSGVPDRFSGSKSGTSASLAITGLQAEDEADYYCQTYDSSGSARVVFGGGTKLTVLG
7 | 1 | 0.619 | 0.000207 | 328000 | ~0.2 | – | ~0.02 | 4.57 | 0.538 | 0.000201 | 419000 | – | ~0.05 | ~0.01 | no binding (tested: 5 µg/mL) | – | – | – | – | PL3#7-19 mtIgG1 (antibody, V domains shown, Antibody was biotinylated (NHS-PEG4-biotin, sites not specified) for the Octet assay of Table 11., N297A mutant human IgG1; also called PL3#7-19 parental mtIgG1) VH: QVQLVQSGAEVKKPGSSVKVSCKASGGTFSSYPISWVRQAPGQGLEWMGRIIPILGIANYAQKFQGRVTITADKSTSTAYMELSSLRSEDTAVYYCARSRDGYAFGAFDVWGQGTLVTVSS VL: QSVVTQPPPVSGAPGQRVTISCTGSSSNIGGGYDVHWYQQLPGTAPKLLIYGNSTRPSGVPDRFSGSKSGTSASLAITGLQAEDEADYYCQTYDSSLSATVVFGGGTKLTVLG
8 | – | – | – | – | – | – | ~0.01 | 1 | 2.46 | 0.000561 | 221000 | ~0.003 | ~0.03 | ~0.002 | no binding (tested: 5 µg/mL) | 2.86 | 0.221 | 0.000286 | 1.33e+06 | PL2#3 mtIgG1 (N297A) (antibody, V domains shown, N297A mutant of human IgG1 Fc backbone) VH: EVQLVQSGGGLVKPGGSLRLSCAASGFTFSSYTMNWVRQAPGKGLEWVSSISSGSDYLYYADSVKGRFTISRDNAKNSLYLQMNSLRAEDTAVYYCARNELRWYPQAGAFDRWGQGTMVTVSS VL: QSVVTQPPSMSAAPGQRVTISCSGSSSYIESSYVGWYQQLPGTAPRLLIYDDDMRPSGIPDRFSGSKSGTSATLAITGLQTGDEADYYCEIWRSGLGGVFGGGTKLTVLS

Source: patent US20190225691A1 (SHANGHAI HENLIUS BIOTECH, published 2019)
